Measurements taken from paper PMC5614878.

How the values were obtained:
[1] = target: p51 (polymerase domain of HIV-1 reverse transcriptase) (HIV-1) (UniProt P03366); experiment: NMR
[2] = target: HIV-1 reverse transcriptase p66 p66 (Human immunodeficiency virus 1) (UniProt O93215); details: cited from earlier work

Row | Substance | percent dimeric [1] | stoichiometry N [1] | Kd [2]
1 | p51 (polymerase domain of HIV-1 reverse transcriptase) (from UniProt P03366 600-1025) (domain or fragment) | 80% | 2 | –
2 | HIV-1 reverse transcriptase p66 p66 (from UniProt O93215) | – | – | 4 µM
